Reference: US20100249184A1, “INDUCTION AND/OR MAINTENANCE OF TUMOR DORMANCY BY DISRUPTION OF UROKINASE PLASMINOGEN ACTIVATOR RECEPTOR-INTEGRIN INTERACTION” (MOUNT SINAI SCHOOL OF MEDICINE, priority 2007, published 2010)

Assays:
[1] = target: T1, purified human α5β1-integrin (Homo sapiens, UniProt P05556+P08648); assay: Solid phase dot-ELISA: α5β1-integrin binding to immobilized uPAR peptides and suPAR; conditions: for α5β1-integrin binding to immobilized peptide: peptide immobilized on nitrocellulose, α5β1-integrin 750 ng/ml; for reduction of integrin binding to immobilized uPAR: α5β1-integrin pre-incubated 15 min with 100 fold molar excess of peptide, suPAR 1.5 μg
T1 construct: purchased Chemicon International (Temecula, Calif.)
T1 sequence (P08648 42-894 limits assumed): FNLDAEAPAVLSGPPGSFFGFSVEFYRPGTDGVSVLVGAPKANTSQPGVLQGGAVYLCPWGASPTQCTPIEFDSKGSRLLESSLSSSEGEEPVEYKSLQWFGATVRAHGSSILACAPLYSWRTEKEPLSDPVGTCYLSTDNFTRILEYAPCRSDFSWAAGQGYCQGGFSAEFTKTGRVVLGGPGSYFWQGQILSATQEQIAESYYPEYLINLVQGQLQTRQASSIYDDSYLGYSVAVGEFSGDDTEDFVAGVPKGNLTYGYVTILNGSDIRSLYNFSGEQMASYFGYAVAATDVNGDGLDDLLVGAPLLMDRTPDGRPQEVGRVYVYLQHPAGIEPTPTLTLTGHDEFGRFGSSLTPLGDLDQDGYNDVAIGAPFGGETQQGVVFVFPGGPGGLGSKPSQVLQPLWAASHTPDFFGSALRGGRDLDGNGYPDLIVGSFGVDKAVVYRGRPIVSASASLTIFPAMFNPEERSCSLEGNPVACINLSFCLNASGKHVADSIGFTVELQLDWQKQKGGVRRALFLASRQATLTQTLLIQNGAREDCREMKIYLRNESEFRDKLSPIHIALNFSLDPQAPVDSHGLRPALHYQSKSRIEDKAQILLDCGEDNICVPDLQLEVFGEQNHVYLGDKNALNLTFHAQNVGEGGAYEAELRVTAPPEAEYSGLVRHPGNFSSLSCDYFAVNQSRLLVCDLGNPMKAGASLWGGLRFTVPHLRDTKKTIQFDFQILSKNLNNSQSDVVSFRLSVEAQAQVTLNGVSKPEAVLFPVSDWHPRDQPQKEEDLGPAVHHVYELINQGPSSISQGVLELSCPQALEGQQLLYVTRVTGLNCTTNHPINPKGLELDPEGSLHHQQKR
T1 sequence (P08648 895-1049 limits assumed): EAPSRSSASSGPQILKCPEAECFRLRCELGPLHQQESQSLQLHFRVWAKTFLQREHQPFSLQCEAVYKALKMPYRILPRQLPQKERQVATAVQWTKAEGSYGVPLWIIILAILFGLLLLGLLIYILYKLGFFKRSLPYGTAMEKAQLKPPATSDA
T1 sequence (P05556 21-798): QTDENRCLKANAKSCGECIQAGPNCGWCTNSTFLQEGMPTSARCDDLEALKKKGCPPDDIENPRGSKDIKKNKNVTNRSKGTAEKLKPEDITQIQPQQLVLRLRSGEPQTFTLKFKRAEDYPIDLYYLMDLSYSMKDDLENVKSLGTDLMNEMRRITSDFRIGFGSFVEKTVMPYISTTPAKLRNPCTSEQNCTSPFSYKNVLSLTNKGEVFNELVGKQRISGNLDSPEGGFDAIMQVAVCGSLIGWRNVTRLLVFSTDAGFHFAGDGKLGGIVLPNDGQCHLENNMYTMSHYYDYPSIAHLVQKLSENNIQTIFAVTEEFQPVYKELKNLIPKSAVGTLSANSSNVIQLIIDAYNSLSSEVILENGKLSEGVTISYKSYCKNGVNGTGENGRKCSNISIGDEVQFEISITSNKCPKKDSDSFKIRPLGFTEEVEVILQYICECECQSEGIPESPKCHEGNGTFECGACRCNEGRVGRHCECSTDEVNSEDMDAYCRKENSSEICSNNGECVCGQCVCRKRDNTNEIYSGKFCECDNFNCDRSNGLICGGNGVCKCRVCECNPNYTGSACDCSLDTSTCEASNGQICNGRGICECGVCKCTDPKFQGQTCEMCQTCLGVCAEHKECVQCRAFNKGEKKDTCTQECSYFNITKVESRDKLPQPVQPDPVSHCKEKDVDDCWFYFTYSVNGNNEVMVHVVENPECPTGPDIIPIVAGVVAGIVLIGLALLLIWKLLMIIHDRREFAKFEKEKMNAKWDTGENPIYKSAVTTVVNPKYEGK
Method: FIGS. 1A-H show the interaction between α5β1-integrin and immobilized uPAR and uPAR-derived synthetic peptides through solid-phase dot-ELISA. […] Bound integrin was detected with anti-α5 integrin antibody followed by goat anti-rabbit IgG (H+L) HRP conjugated secondary antibody and developed with enhanced chemiluminescence (“ECL”). FIG. 1B is a graph showing that binding of integrin to suPAR is saturable. SuPAR (1.5 μg) was immobilized on nitrocellulose membrane in triplicates, incubated with 0, 0.1, 0.5, 1, 2, and 4 μg/ml of α5β1-integrin and tested for integrin binding as in FIG. 1A. The dots were scanned with NIH Image. Mean and SE are shown. […] Peptides representing regions located in each of the three uPAR-domains were immobilized, incubated with α5β1-integrin, and analyzed as in FIG. 1A. Only peptide 240-248 binds α5β1-integrin. FIG. 1D is a graph showing that peptide 240-248 inhibits integrin binding to suPAR. The α5β1-integrin (750 ng/ml) was pre-incubated for 15 min at room temperature with 100 fold molar excess of 240-248 or 17-24 peptides, or with no peptide (Control) and the mixtures were applied to immobilized suPAR (1.5 μg), 2 dots per mixture, and developed as in FIG. 1A. The dots were scanned with NIH Image. The results (bars) show % of control, the lines show range. FIG. 1E is a graph showing binding of α5β1- and α3β1-integrin to suPAR and peptide 240-248. Dot-ELISA was performed in duplicate as in FIG. 1A, except that purified α5β1-integrin and α3β1-integrin (750 ng/ml) were used. Bound integrins were detected with the appropriate previously titrated antibodies followed by goat anti-rabbit IgG (H+L) HRP conjugated secondary antibody and detection with ECL. The graph represents the mean and range of two values: α5β1-integrin binding to peptide 240-248 (▪) or SuPAR (▴); α3β1-integrin binding to peptide 240-248 ([…]) and SuPAR (x). […] Peptide 240-248 (domain III), 17-24 (domain I), and the S245A mutant of peptide 240-248 were immobilized and tested for integrin binding as in FIG. 1A. FIGS. 1G-H show the crystal structure of human uPAR shown as a surface representation. The three individual domains of uPAR in FIG. 1G are indicated as follows: D1 is on the right side, DII is on the top of the model, and Diii is on the left of the model. In FIG. 1H, the order of the domains is inversed. […] The location of the COOH-terminal in uPAR domain III harboring the GPI-anchor is indicated by the arrow (FIG. 1H). FIGS. 1G-H were created by the program PyMol (DeLano Scientific) using the coordinates 1YWH.
FIGS. 2A-B show solid phase dot-ELISA of suPAR. […] Binding was detected as in FIG. 1A and the dots were scanned with NIH Image. Mean of the two-scanned value for each suPAR concentration are shown in the bottom panel. Mutation of residues in the 239-249 sequence reduced the integrin binding by ˜50 to 94%. suPAR^E33A (▪), suPAR^wt (▴), suPAR^R239A (♦), suPAR^H249A (x), suPAR^Q248A (∘), suPAR^M246A ([…]), suPAR^S245A (□).
Synthetic uPAR-derived peptides and mutant proteins were diluted to 0.5, 1, and 2 μg/100 μl of PBS. […] The strips, pinned to the bottom of a plastic box, were washed with TBS with 0.1% Tween 20, overlaid with 500 μl of rabbit anti-integrin α5 polyclonal antibody (1:650) for 1 hr at RT, washed with TBST twice, incubated with goat anti-rabbit IgG (H+L) HRP conjugated secondary antibody (1:2000) for 1 hr, washed 3 times with TBST, and developed with ECL. The dots were scanned with NIH image.

HEK293 cells = assay: Adhesion assay to fibronectin, transfected HEK293 cells; assay type: cell-based; conditions: HEK293-uPAR^wt cells; peptide 20 or 200 μM, 15 min
Method: HEK293 cells transiently transfected with pcDNA3.1, or expression constructs for uPAR^wt or uPAR^S245A were detached 40 hrs after transfection and 1.5×10^5 cells were seeded on fibronectin (4 μg/ml in a 48-well plate) for 15 and 30 min at 37° C. Cell adhesion was quantified as described in the Examples. The results shown are mean (SD) of 2 individual experiments, 4 determinations for each cell type. Two additional experiments were performed with similar results. […] The cells were divided into 2 aliquots and one aliquot was incubated for 10 min with anti-uPAR(R^2) antibody (10 μg/ml). Cells (1.2×10^5) were seeded onto wells of a 48-well plate and the adhesion to fibronectin tested as in FIG. 4A. The results are mean (SD) of 6 determinations. […] Cells were seeded onto 96-well plates and adhesion to fibronectin tested as in FIG. 4A. The results are mean (SD) of 3 determinations for each peptide. The experiment was repeated twice.
HEK293 cells were transiently transfected with pcDNA3.1, uPAR^wt, or uPAR^S245A. […] Following 15 and 30 min incubation at 37° C., the cells were washed twice with PBS with CaCl2 and MgCl2, fixed with 1% glutaraldehyde, stained with 1% crystal violet for 10 min, washed, dried, destained with 10% methanol and 5% acetic acid, and the OD of the extracted dye was measured in triplicate using the ELISA microplate-reader ELX800 from Bio-Tek Instruments. […]

T-HEp3 cells = assay: Adhesion assay to fibronectin, T-HEp3 cells; assay type: cell-based, human; conditions: peptide 20 or 200 μM, 15 min

| Substance | α5β1-integrin binding to immobilized peptide [1] | reduction of integrin binding to immobilized uPAR [1] | adhesion to fibronectin (HEK293 cells) | adhesion to fibronectin (T-HEp3 cells) |
| --- | --- | --- | --- | --- |
| peptide 17-24: synthetic uPAR-derived peptide, domain I amino acid 17-24: CALGQDLC (SEQ ID NO:5); negative control [reference compound] | no binding | negligible effect | no effect | no effect |
| peptide 240-248: synthetic uPAR-derived peptide, domain III residues 240-248: GCATASMCQ (SEQ ID NO:9) | bound α5β1-integrin in a dose-dependent fashion | more than 70% | reduced adhesion to fibronectin | reduced adhesion to fibronectin |
